Target: T1, N-terminal Protein-A tagged Esc2 (WT) (S. cerevisiae, UniProt Q06340 1-456)
T1 construct: Esc2, S. cerevisiae, protein with two SUMO-like domains (SLD1, SLD2); details of plasmid construction are available upon request; also called WT Esc2; ScEsc2; source: bacteria (BL21 cells), purified with IgG sepharose resin; not shown: Protein A, N-terminal, kept
T1 sequence (looked up): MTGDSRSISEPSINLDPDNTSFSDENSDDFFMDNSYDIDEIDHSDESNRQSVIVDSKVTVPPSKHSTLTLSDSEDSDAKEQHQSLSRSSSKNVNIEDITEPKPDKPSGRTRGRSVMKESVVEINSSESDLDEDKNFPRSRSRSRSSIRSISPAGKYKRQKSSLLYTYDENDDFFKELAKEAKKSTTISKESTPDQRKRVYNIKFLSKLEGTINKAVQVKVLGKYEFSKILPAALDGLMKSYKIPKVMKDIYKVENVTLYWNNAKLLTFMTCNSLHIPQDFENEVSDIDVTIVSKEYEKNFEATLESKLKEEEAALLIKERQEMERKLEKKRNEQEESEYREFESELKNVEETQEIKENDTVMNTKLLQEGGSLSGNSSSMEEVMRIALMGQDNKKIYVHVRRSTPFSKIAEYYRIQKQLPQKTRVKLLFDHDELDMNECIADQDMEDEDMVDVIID
Test: pull-down; 40 ug Protein-A-Esc2 (WT or D430R) bound to 20 uL IgG resin, incubated with 100 ug purified Ubc9 in 200 uL for 2 hours on ice; washed 5 times with PBS with 0.2% NP-40; bound Ubc9 eluted and seen by Coomassie staining
Conditions: both partners purified

binding result: binds
B1: C-terminal 6xHIS tagged Ubc9 (enzyme, S. cerevisiae, UniProt P50623 1-157, looked up)
chain: MSSLCLQRLQEERKKWRKDHPFGFYAKPVKKADGSMDLQKWEAGIPGKEGTNWAGGVYPITVEYPNEYPSKPPKVKFPAGFYHPNVYPSGTICLSILNEDQDWRPAITLKQIVLGVQDLLDSPNPNSPAQEPAWRSFSRNKAEYDKKVLLQAKQYSK
notes: Ubc9, SUMO E2 conjugating enzyme, S. cerevisiae; also called Ubc9 SUMO conjugating enzyme; E2

Reference: publication PMC7891725, “Shared and distinct roles of Esc2 and Mms21 in suppressing genome rearrangements and regulating intracellular sumoylation” (PLoS ONE, 2021)
